Assay results reported in article PMC5144075.

Key:
[1] = target: 16A-cys(i)-less (TMEM16A with all cysteines of the cytosolic portion replaced with serines); experiment: cross-linking; harvested transfected HEK-293 cells in PBS with 300 uM 1,5-pentanediyl bismethanethiosulfonate, 15 min, room temperature; stopped with Laemmli buffer or reversed with 33 mM DTT; SDS-PAGE and Western blot with SP31 antibody
[2] = target: TMEM16A fused to a fluorescent protein (eGFP-TMEM16A, TMEM16A-eGFP, TMEM16A-mCherry); experiment: FRET or BRET; acceptor photobleaching FRET, confocal microscope, HEK-293 cells co-transfected with eGFP-TMEM16A (donor) and TMEM16A-mCherry (acceptor): NT-CT configuration
[3] = target: 16A-cys(i)-less R494C/K921C; experiment: cross-linking; harvested transfected HEK-293 cells in PBS with 300 uM 1,5-pentanediyl bismethanethiosulfonate, 15 min, room temperature; stopped with Laemmli buffer or reversed with 33 mM DTT; SDS-PAGE and Western blot with SP31 antibody

Chain of TMEM16A fused to a fluorescent protein (eGFP-TMEM16A, TMEM16A-eGFP, TMEM16A-mCherry) (Q5XXA6 whole entry, the tested form may be a part): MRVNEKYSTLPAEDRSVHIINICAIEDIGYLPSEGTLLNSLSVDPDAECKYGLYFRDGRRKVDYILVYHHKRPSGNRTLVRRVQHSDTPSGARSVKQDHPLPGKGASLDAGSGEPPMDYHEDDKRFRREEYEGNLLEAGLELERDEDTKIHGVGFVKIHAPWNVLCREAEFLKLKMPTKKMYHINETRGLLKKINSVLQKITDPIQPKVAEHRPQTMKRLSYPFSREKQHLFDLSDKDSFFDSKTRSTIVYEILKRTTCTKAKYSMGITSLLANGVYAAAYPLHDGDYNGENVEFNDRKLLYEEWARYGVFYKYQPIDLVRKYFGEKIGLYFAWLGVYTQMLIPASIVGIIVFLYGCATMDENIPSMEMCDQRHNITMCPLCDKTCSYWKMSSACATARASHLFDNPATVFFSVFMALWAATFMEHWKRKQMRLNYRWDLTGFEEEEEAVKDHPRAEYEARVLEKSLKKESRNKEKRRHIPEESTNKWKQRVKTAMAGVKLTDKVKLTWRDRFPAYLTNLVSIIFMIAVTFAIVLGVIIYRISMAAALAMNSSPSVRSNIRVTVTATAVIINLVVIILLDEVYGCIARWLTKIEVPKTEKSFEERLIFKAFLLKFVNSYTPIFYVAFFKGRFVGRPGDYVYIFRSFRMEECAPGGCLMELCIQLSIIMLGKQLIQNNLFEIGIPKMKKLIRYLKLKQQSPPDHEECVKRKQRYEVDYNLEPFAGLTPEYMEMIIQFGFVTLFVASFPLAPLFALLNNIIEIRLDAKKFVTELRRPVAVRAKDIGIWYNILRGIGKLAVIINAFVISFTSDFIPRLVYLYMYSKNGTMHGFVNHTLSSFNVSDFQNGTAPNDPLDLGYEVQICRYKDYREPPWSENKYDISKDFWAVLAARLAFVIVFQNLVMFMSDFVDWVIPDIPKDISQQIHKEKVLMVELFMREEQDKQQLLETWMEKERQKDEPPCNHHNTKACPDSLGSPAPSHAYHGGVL

Substance: 16A-cys(i)-less (TMEM16A with all cysteines of the cytosolic portion replaced with serines) (natural protein)
- stoichiometry N [1]: 2

Substance: TMEM16A fused to a fluorescent protein (eGFP-TMEM16A, TMEM16A-eGFP, TMEM16A-mCherry) (natural protein)
- FRET efficiency [2]: 7.44%

Substance: 16A-cys(i)-less R494C/K921C (natural protein)
- stoichiometry N [3]: 2
